Where two headings read alike, the source gives them in different places.
Tests used:
Assay in all cases: crystal structure
[1] = target: T1, ALKBH2-dN55 crosslinking mutant (Homo sapiens, UniProt Q6NS38 56-261, C67S;C165S;G169C;C192S)
T1 sequence: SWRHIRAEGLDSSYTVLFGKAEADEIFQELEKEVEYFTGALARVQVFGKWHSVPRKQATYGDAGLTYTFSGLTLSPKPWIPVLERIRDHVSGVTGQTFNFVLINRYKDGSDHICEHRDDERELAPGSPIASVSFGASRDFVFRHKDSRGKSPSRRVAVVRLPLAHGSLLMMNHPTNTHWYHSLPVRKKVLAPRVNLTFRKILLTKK

[2] = target: T1, ALKBH2-dN55 crosslinking mutant; remark: listed apart in the source
[3] = target: T1, ALKBH2-dN55 crosslinking mutant; remark: listed apart in the source
[4] = target: T1, ALKBH2-dN55 crosslinking mutant; remark: listed apart in the source

B1: eA DNA (dsDNA)
DNA 1: CTGTCAAACTGCG
DNA 2: TCGCAGTTAGACA
modifications: 1,N6-ethenoadenine at position 7 of strand 1 (written A); no C* printed in this strand
Q: Does B1 bind [1]?
A: Result: binds

B2: CG DNA (dsDNA)
DNA 1: CTGTCATCACTGCG
DNA 2: TCGCAGTGATGACA
modifications: C* (position 10 of strand 1): disulfide crosslinking cytosine
Q: Does B2 bind [2]?
A: Result: binds

B3: CI DNA (dsDNA)
DNA 1: ATGTATCACTGCG
DNA 2: TCGCAGTGATACA
modifications: C* (position 9 of strand 1): disulfide crosslinking cytosine; strand 2 position 8 is inosine (written G)
Q: Does B3 bind [3]?
A: Result: binds

B4: AT DNA (dsDNA)
DNA 1: ATGTATAACTGCG
DNA 2: TCGCAGTTATACA
modifications: C* (position 9 of strand 1): disulfide crosslinking cytosine
Q: Does B4 bind [4]?
A: Result: binds

B5: 3-meC DNA (dsDNA)
DNA 1: CTGTCTCACTGCG
DNA 2: TCGCAGTGAGACA
modifications: 3-methylcytosine at position 7 of strand 1 (written C); C* (position 9): disulfide crosslinking cytosine
Q: Does B5 bind [1]?
A: Result: binds

From publication PMC3392526
